Columns and labels:
[1] = biological target: T1, recombinant human extracellular domain of IGF2R (human, UniProt P11717 41-2304); assay: phage ELISA on hIGF2R-ECD
T1 construct: extracellular domain; Recombinant, immobilized on plates; also called hIGF2R-ECD; human IGF2R ectodomain (ECD)
Method: After the second selection round, 94 phage clones were randomly picked and assessed for binding to hIGF2R-ECD in a phage ELISA. Clones showing affinity were analyzed by restriction enzyme analysis using Hinfl and then categorized according to their restriction pattern. From each category, multiple clones were selected, and the amino acid sequences of these binders were identified (Table 2).

[2] = biological target: T1, recombinant human extracellular domain …; assay: direct binding assay of the Alexa Fluor 647 conjugate on hIGF2R-ECD, one-site specific binding fit
Method: These conjugates were then subjected to direct binding assays on immobilized hIGF2R-ECD, meaning that plates were read out immediately after washing, without additional detection steps. […] For detailed analysis, binding parameters KD and Bₘₐₓ were calculated in Graphpad (version 8.3), using one-site specific binding analysis (FIG. 8D).
Based on their high affinity and binding to non-overlapping receptor epitopes, VHHs 13F11 and 13E8 were selected for the design of biparatopic and bivalent VHH constructs. Two VHHs were fused with a flexible linker, consisting of three Gly-Gly-Gly-Gly-Ser repeats (FIG. 8A). The sequences were codon optimized for expression in E. coli and obtained as synthesized DNA fragments from GeneArt. The DNA fragments encoding VHHs were cloned into a vector pET28-based vector introducing a C-terminal free cysteine for site-directed conjugation and His6 tag for IMAC purification (FIG. 8A). The VHH constructs were produced and purified as described in example 4. […] In a similar binding assay, IR dye 800 (IRD800) conjugates were prepared (as outlined in example 10.2) of the monomeric VHHs 13F11 and 13E8, the biparatopic VHH construct 13F11-13E8, the reciprocal biparatopic construct 13E8-13F11, the bivalent VHH construct 13F11-13F11, and the non-binding (control-) VHH R2. Conjugated constructs were then subjected to binding assay as described above.

[3] = biological target: T2, recombinant hPDGFRB ectodomain (human, UniProt P09619 33-532); assay: phage ELISA and binding assay on hPDGFRB-ECD; values only in FIG. 5
T2 construct: extracellular domain; also called hPDGFRB-ECD; human PDGFRB ECD
T2 sequence (P09619 33-532): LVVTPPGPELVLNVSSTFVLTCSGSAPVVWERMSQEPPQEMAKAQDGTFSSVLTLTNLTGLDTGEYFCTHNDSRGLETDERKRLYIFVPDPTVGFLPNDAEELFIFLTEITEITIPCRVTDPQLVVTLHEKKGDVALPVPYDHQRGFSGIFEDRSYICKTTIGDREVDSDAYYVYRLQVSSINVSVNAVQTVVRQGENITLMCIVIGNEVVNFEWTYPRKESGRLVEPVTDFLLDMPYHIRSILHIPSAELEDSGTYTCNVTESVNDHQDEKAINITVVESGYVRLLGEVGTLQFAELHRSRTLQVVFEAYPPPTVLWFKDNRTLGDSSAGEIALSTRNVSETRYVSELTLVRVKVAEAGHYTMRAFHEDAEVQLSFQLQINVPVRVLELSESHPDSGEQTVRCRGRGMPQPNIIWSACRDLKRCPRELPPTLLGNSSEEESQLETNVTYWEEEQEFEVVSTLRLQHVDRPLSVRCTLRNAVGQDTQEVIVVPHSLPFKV

[4] = biological target: T3, recombinant rPDGFRB ectodomain (rat, UniProt Q05030 32-531); assay: phage ELISA and binding assay on rPDGFRB-ECD; values only in FIG. 6
T3 construct: extracellular domain; also called rPDGFRB-ECD; rat PDGFRB ECD
T3 sequence (looked up): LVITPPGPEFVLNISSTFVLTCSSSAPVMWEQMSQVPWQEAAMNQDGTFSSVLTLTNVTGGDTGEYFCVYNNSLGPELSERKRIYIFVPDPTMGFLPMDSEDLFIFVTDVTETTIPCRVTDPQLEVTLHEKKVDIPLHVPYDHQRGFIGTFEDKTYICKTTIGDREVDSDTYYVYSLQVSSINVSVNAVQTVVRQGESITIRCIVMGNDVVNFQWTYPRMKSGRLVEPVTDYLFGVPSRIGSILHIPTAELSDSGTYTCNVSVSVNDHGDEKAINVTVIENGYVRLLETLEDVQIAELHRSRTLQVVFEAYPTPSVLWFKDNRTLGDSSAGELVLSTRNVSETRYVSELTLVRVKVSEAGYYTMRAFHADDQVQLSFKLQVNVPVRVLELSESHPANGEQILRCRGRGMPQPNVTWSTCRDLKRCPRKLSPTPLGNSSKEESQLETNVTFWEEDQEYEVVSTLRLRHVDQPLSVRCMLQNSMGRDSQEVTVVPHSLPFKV

B1: 13G12 (VHH)
VHH: EVQLVESGGGLVQAGGSLRLSCAASGRAFSISSMSWFRQAPGKERVVVASIAWSGDSTYYADSVQGRFTISKDNAKNTLSLQMNSLKPEDTAVYYCSAYTQVSVNNRYWGQGTQVTVSS
notes: the first entry is used; On phage in the phage ELISA
binding result [1]: binds

B2: 13D11 (VHH)
VHH: EVQLVESGGGLVQAGGSLRLSCAASGSIFSINYMAWYRQAPGKEREVVASMSWRRDSTYLADSVQGRFTISRNNAKNTMYLQMNSLKPEDTALYYCKANDYWGQGTQVTVSS
notes: On phage in the phage ELISA; tail applies to the purified protein
binding result [1]: binds

B3: 13A3 (VHH)
VHH: EVQLVESGGGLVQAGGSLRLSCAASGSIFRLNYMAWYRQAPGKEREVVASMSRRSDSTYLADAVQGRFTISMNNAGNTMYLQMNSLKPEDTALYYCKANDYWGQGTQVTVSS
notes: as for B2
binding result [1]: binds

B4: 13F4 (VHH)
VHH: EVQLVESGGGLVQAGGSLRLSCVASGSIFSINYMAWYRQTPGKEREVVASMSRRSDSTYLADAVQGRFTISRNNAGNTMYLQMNSLKPEDTALYYCKANDYWGQGTQVTVSS
notes: as for B2
binding result [1]: binds

B5: 13B7 (VHH)
VHH: EVQLVESGGGLVQAGGSLRLSCAASRSISPMGWYRQAPGKQRELVAIMPSSGTPIYADSVQGRFTISRDNAKNTVYLQMNSLKPEDTAVYYCNVGGGYWGQGTQVTVSS
notes: as for B2
binding result [1]: binds

B6: 13A2 (VHH)
VHH: EVQLVESGGGLVQAGGSLRLSCAASGIIFSANTVGWYRQVPGKERDVVASITSGDSTYYGDSVRDRFTISRDNAKNTVYLQMNSLKPDDTAIYYCRARTTDGSYWGQGTQVTVSS
notes: as for B2
binding result [1]: binds

B7: 13B12 (VHH)
VHH: EVQLVESGGGLVQAGGSLRLSCAASGIIFGANTVGWYRQVPGKERDVVASITSVDSTYYGDSVRGRFTISRDNAKNTVYLQMNSLKPEDTAIYYCRARTTDGSYWGQGTQVTVSS
notes: as for B2
binding result [1]: binds

B8: 13F11-13F11-A647 (VHH)
chain: EVQLVESGGRLVQPGDSLRLSCAASGRTFSDNAMGWFRQAPGKERRFVAGISWAGGSTYYSDSVKGRFTISRDNAKNTVYLQMNSLKPEDTAVYYCAAGLRAWVQRMPKDYNYWGQGTQVTVSSGGGGSGGGGSGGGGSEVQLVESGGRLVQPGDSLRLSCAASGRTFSDNAMGWFRQAPGKERRFVAGISWAGGSTYYSDSVKGRFTISRDNAKNTVYLQMNSLKPEDTAVYYCAAGLRAWVQRMPKDYNYWGQGTQVTVSS
modifications: Alexa Fluor 647 coupled by maleimide to the C-terminal free cysteine, which is not in the letters
notes: Bivalent tandem VHH; not shown: C-terminal tail: free Cys, possible thrombin site and His6 tag
Kd [2]: 3.1 nM

B9: 13A8 (VHH)
VHH: EVQLVESGGGLVPAGGSLRLSCAASGRTFSNYAMGWFRQAPGKERKFVATISWSGGVTYYADSVKGRFTISRDNAKNTVYLLMNSLKPEDTAVYYCAAKRDSSSYDHRRYDYWGQGTQVTVSS
notes: On phage in the phage ELISA; purified from E. coli in the other assays
binding result [1]: binds

B10: 13E5 (VHH)
VHH: EVQLVESGGGLVQAGGSLRLSCAASGLTFSRYTMSWYRQAPGKEREVVAAISSGDSTYHEDSVKGRFIISRDNAKNTVYLQMNSLKTEDTAVYYCRANGPGTYWGQGTQVTVSS
notes: as for B2
binding result [1]: binds

B11: SP01P (VHH)
VHH: EVQLVESGGGLAQAGGSLRLSCVASGNIDSANGMAWYRQAPGKQRELVAHITSGTSYYVASVEGRFTISRANAKDTWYLQMNSLKPEDTGVYYCFPIGLSAHWSQGTQVTVSS
notes: From libraries 1 and 2 (raised against hPDGFRB)
binding result [3]: binds

B12: SP02P (VHH)
VHH: EVQLVESGGGLVQAGGSLRLSCAASESISSIEQMGWFRQAPGKQRALVAINTYGGRTVYTNSVEGRFTMSRDSAKNMVYLQMTSLEPEDTAVYYCYAQTTAWRGGVWGQGTQVTVSS
notes: as for B11
binding result [3]: binds

B13: SP05P (VHH)
VHH: EVQLVESGGGLVQAGGSLRLSCAASGRTSFSGYAMAWFRQAPGKERDFVASITWSYGYTYYTDSAQGRFTISRDSAKNTVYLEMNSLKPEDTAVYYCAADPKASRFRILREYAYWGQGTQVTVSS
notes: as for B11
binding result [3]: binds

B14: SP08P (VHH)
VHH: EVQLVESGGGLVQAGGSLRLSCAASGRTFNGYAMAWFRQAPGKERDFVASITWSYGYTYYADSAQGRFTISRDSAKNTVYLEMNSLKPEDTAVYYCAADPKASRFRILRQYAHWGQGTQVTVSS
notes: as for B11
binding result [3]: binds

B15: SP10P (VHH)
VHH: EVQLVESGGGLVQAGGSLRLSCAASGRTFNGYAMGWFRQAPGKERDFVAAITWSYGYTHYAESVKGRFSISRDSANNMVYLEMNSLKPEDTAVYYCAADPKASRFRTLRRYDYWGQGTQVTVSS
notes: as for B11
binding result [3]: binds

B16: SP12P (VHH)
VHH: EVQLVESGGGLVQAGGSLRLSCVISGRTSPTYPMGWFRQSPGNEREFVASINWSGGWRNYADSVKGRFTISRDDAKNTVYLQMNSLKPEDTAVYYCARGQYSSGTPVYAHEYAYWGQGTQVTVSS
notes: as for B11
binding result [3]: binds

B17: SP20P (VHH)
VHH: EVQLVESGGGLVQAGGSLRLSCVISGRTSPTYPMGWFRQSPGNEREFVASINWSGGWRNYADSVKDRFTISRDDAKNTVYLQMNSLKPEDTAVYYCARGQYSSGTPVYAHEYAYWGQGTQVTVSS
notes: as for B11
binding result [3]: binds

B18: SP13P (VHH)
VHH: EVQLVESGGGLVQPGGSLRLSCAASESIFSINYMAWYRQAPGKQRELVAFSIDGSSTNYVDSVRGRFTASRDNAENTLYLQMNSLKPEDTAVYYCYAQGNTWAAGVWGQGTQVTVSS
notes: as for B11
binding result [3]: binds

B19: SP14P (VHH)
VHH: EVQLVESGGGLVQAGDSLRLSCVVSGLTFSRYGMGWFRQATGKEREFVGGISVGSSGTMYPNSVKGRFTISRDNAKSTVYLQMNSLKPEDTAVYFCAAIDQGSFVQQRDYRYWGQGTQVTVSS
notes: as for B11
binding result [3]: binds

B20: SP27P (VHH)
VHH: EVQLVESGGGLVQIGDSLRLSCAASGGTFNRYGMGWFRQAPGKEREFVAAIRWDGVDTNYADFVKGRFTISRYNAKNTAYLQMNSLKPEDTAVYYCAADRRGLYTKHAHRYDYWGQGTQVTVSS
notes: From libraries 3 and 4 (raised against rPDGFRB)
binding result [4]: binds

B21: SP28P (VHH)
VHH: EVQLVESGGGLVQAGGSLRLSCAASGSIVSFNGINWYRQAPGKQREWVGGITQGGNTMYADSVRGRFTISRDNTKNTMYLQMNSLKPEDTAVYYCRRPPVASWGQGTQVTVSS
notes: as for B20
binding result [4]: binds

B22: SP30P (VHH)
VHH: EVQLVESGGGLVQAGGSLRLSCAASRGTFGTDIMGWFRQAPGKEREFVAAISWRGANTYYGYSVKGRFTISRDNAKNTMYLQMADLKPEDTADYYCGVHLNGTPYYYASGYRYWGQGTQVTVSS
notes: as for B20
binding result [4]: binds

B23: SP31P (VHH)
VHH: EVQLVESGGGLVQAGGSLRLSCAASRGTFGTYIMGWFRQAPGKEREFVAAISWRGANTYYGYSVKGRFTISRDNAKNTMYLQMADLKPEDTADYYCGVHLNGTPYYYASGYRYWGQGTQVTVSS
notes: as for B20
binding result [4]: binds

B24: SP36P (VHH)
VHH: EVQLVESGGGLVQAGGSLRLSCTPSITTAGTTIMAWFRQAPGNEREFVAAIWGSKTAYGDSMKGRLTISRDNVRDNGQKTVFLQMNNLQLQDTATYYCAASSGGYVHSSTSYEIWGRGTQVTVSS
notes: as for B20
binding result [4]: binds

Source: US20240325562A1 (LINXIS B V, published 2024)
